In paper PMC9521027 (ACS Omega, 2022):
Where “and” joins values, the source holds several entries; their conditions need not be identical. Equal values may be shown once.

Experiments:
URAT1 K393H mutant = biological target: T1, URAT1 K393H mutant (Homo sapiens, UniProt Q96S37, K393H); assay: 14C-uric acid binding assay with membrane protein; settings: 1 μM BM, 1 μM verinurad, 10 μM lesinurad, 20 μM probenecid, 30 min, 25 μM 14C-uric acid
T1 sequence (Q96S37 1-553 K393H): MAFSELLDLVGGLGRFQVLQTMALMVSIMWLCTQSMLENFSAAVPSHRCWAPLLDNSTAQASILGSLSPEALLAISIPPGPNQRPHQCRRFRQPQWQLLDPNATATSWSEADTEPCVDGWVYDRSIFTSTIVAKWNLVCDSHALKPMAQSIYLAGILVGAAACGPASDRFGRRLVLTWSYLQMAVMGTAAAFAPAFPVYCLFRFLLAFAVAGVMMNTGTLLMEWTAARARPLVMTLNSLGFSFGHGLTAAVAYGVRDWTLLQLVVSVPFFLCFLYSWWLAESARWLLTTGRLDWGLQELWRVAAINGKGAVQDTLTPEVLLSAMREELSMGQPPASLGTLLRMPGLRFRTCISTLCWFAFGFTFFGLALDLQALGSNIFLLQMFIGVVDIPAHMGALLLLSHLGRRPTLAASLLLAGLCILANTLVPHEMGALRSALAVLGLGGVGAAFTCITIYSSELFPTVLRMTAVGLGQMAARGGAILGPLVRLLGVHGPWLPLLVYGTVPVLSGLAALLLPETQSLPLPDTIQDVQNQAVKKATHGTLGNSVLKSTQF

URAT1 K393R mutant = biological target: T2, URAT1 K393R mutant (Homo sapiens, UniProt Q96S37, K393R); assay: 14C-uric acid binding assay with membrane protein; settings: 1 μM BM, 1 μM verinurad, 10 μM lesinurad, 20 μM probenecid, 30 min, 25 μM 14C-uric acid
T2 sequence (Q96S37 1-553 K393R): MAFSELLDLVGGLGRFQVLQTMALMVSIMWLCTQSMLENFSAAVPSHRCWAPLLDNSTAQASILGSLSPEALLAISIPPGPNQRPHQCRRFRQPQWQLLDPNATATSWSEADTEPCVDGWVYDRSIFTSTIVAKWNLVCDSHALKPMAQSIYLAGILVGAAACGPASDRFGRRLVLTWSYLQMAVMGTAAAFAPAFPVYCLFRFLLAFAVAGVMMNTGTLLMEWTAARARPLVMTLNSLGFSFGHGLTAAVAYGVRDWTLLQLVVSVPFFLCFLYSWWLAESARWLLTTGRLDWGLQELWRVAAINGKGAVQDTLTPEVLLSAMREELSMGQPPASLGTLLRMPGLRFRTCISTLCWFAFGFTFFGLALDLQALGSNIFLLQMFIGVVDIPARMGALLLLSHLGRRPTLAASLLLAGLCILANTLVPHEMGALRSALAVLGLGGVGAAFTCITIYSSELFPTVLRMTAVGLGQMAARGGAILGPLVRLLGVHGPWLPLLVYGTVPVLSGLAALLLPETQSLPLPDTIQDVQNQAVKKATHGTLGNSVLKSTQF

[1] = substrate: O=c1[nH]c(=O)c2[nH]c(=O)[nH]c2[nH]1; assay: Saturation kinetic experiment of 14C-uric acid uptake; format: cell-based, human; settings: 10–200 μM 14C-uric acid, 20 min, HEK293, n = 3

`CCc1oc2ccccc2c1C(=O)c1cc(Br)c(O)c(Br)c1` [BM, benzbromarone] was tested, and the “Effect of inhibitor on 14C-uric acid binding compared with WT group” value (“Effect of inhibitor … compared with WT group” below) (URAT1 K393H mutant) was “poorly interfered” and the “Effect of inhibitor … compared with WT group” value (URAT1 K393R mutant) was “poorly interfered”.

With `O=C(O)CSc1nnc(Br)n1-c1ccc(C2CC2)c2ccccc12` [lesinurad] the “Effect of inhibitor … compared with WT group” value (URAT1 K393H mutant) was “similar” and the “Effect of inhibitor … compared with WT group” value (URAT1 K393R mutant) was “similar”.

In the case of `CCCN(CCC)S(=O)(=O)c1ccc(C(=O)O)cc1` [probenecid], the “Effect of inhibitor … compared with WT group” value (URAT1 K393H mutant) is reported as “similar” and the “Effect of inhibitor … compared with WT group” value (URAT1 K393R mutant) is reported as “similar”.

B1: hURAT1 K393R mutant (Homo sapiens; K393R) (protein)
chain: MAFSELLDLVGGLGRFQVLQTMALMVSIMWLCTQSMLENFSAAVPSHRCWAPLLDNSTAQASILGSLSPEALLAISIPPGPNQRPHQCRRFRQPQWQLLDPNATATSWSEADTEPCVDGWVYDRSIFTSTIVAKWNLVCDSHALKPMAQSIYLAGILVGAAACGPASDRFGRRLVLTWSYLQMAVMGTAAAFAPAFPVYCLFRFLLAFAVAGVMMNTGTLLMEWTAARARPLVMTLNSLGFSFGHGLTAAVAYGVRDWTLLQLVVSVPFFLCFLYSWWLAESARWLLTTGRLDWGLQELWRVAAINGKGAVQDTLTPEVLLSAMREELSMGQPPASLGTLLRMPGLRFRTCISTLCWFAFGFTFFGLALDLQALGSNIFLLQMFIGVVDIPARMGALLLLSHLGRRPTLAASLLLAGLCILANTLVPHEMGALRSALAVLGLGGVGAAFTCITIYSSELFPTVLRMTAVGLGQMAARGGAILGPLVRLLGVHGPWLPLLVYGTVPVLSGLAALLLPETQSLPLPDTIQDVQNQAVKKATHGTLGNSVLKSTQF
For B1, the Km ([1]; other: K393R) was 128.11 μM and 101.23 ± 26.11 (ns) μM and the Vmax ([1]; other: K393R) was 557.21 ± 89.21(ns).

B2: hURAT1 K393H mutant (Homo sapiens; K393H) (protein)
chain: MAFSELLDLVGGLGRFQVLQTMALMVSIMWLCTQSMLENFSAAVPSHRCWAPLLDNSTAQASILGSLSPEALLAISIPPGPNQRPHQCRRFRQPQWQLLDPNATATSWSEADTEPCVDGWVYDRSIFTSTIVAKWNLVCDSHALKPMAQSIYLAGILVGAAACGPASDRFGRRLVLTWSYLQMAVMGTAAAFAPAFPVYCLFRFLLAFAVAGVMMNTGTLLMEWTAARARPLVMTLNSLGFSFGHGLTAAVAYGVRDWTLLQLVVSVPFFLCFLYSWWLAESARWLLTTGRLDWGLQELWRVAAINGKGAVQDTLTPEVLLSAMREELSMGQPPASLGTLLRMPGLRFRTCISTLCWFAFGFTFFGLALDLQALGSNIFLLQMFIGVVDIPAHMGALLLLSHLGRRPTLAASLLLAGLCILANTLVPHEMGALRSALAVLGLGGVGAAFTCITIYSSELFPTVLRMTAVGLGQMAARGGAILGPLVRLLGVHGPWLPLLVYGTVPVLSGLAALLLPETQSLPLPDTIQDVQNQAVKKATHGTLGNSVLKSTQF
With B2 the Km ([1]; other: K393H) was 101.23 μM and 128.11 ± 19.12 (ns) μM and the Vmax ([1]; other: K393H) was 0.000447 µmol/min/mg.

B3: hURAT1 WT (Homo sapiens) (protein)
chain: MAFSELLDLVGGLGRFQVLQTMALMVSIMWLCTQSMLENFSAAVPSHRCWAPLLDNSTAQASILGSLSPEALLAISIPPGPNQRPHQCRRFRQPQWQLLDPNATATSWSEADTEPCVDGWVYDRSIFTSTIVAKWNLVCDSHALKPMAQSIYLAGILVGAAACGPASDRFGRRLVLTWSYLQMAVMGTAAAFAPAFPVYCLFRFLLAFAVAGVMMNTGTLLMEWTAARARPLVMTLNSLGFSFGHGLTAAVAYGVRDWTLLQLVVSVPFFLCFLYSWWLAESARWLLTTGRLDWGLQELWRVAAINGKGAVQDTLTPEVLLSAMREELSMGQPPASLGTLLRMPGLRFRTCISTLCWFAFGFTFFGLALDLQALGSNIFLLQMFIGVVDIPAKMGALLLLSHLGRRPTLAASLLLAGLCILANTLVPHEMGALRSALAVLGLGGVGAAFTCITIYSSELFPTVLRMTAVGLGQMAARGGAILGPLVRLLGVHGPWLPLLVYGTVPVLSGLAALLLPETQSLPLPDTIQDVQNQAVKKATHGTLGNSVLKSTQF
B3 showed a Km ([1]; other: WT) of 106.45 ± 16.45 µM and a Vmax ([1]; other: WT) of 0.000654 µmol/min/mg.

B4: hURAT1 K393A mutant (Homo sapiens; K393A) (protein)
chain: MAFSELLDLVGGLGRFQVLQTMALMVSIMWLCTQSMLENFSAAVPSHRCWAPLLDNSTAQASILGSLSPEALLAISIPPGPNQRPHQCRRFRQPQWQLLDPNATATSWSEADTEPCVDGWVYDRSIFTSTIVAKWNLVCDSHALKPMAQSIYLAGILVGAAACGPASDRFGRRLVLTWSYLQMAVMGTAAAFAPAFPVYCLFRFLLAFAVAGVMMNTGTLLMEWTAARARPLVMTLNSLGFSFGHGLTAAVAYGVRDWTLLQLVVSVPFFLCFLYSWWLAESARWLLTTGRLDWGLQELWRVAAINGKGAVQDTLTPEVLLSAMREELSMGQPPASLGTLLRMPGLRFRTCISTLCWFAFGFTFFGLALDLQALGSNIFLLQMFIGVVDIPAAMGALLLLSHLGRRPTLAASLLLAGLCILANTLVPHEMGALRSALAVLGLGGVGAAFTCITIYSSELFPTVLRMTAVGLGQMAARGGAILGPLVRLLGVHGPWLPLLVYGTVPVLSGLAALLLPETQSLPLPDTIQDVQNQAVKKATHGTLGNSVLKSTQF
Molecule B4 has a Km ([1]; other: K393A) of 172.12 ± 27.12 µM and a Vmax ([1]; other: K393A) of 0.000464 µmol/min/mg.

B5: hURAT1 K393D mutant (Homo sapiens; K393D) (protein)
chain: MAFSELLDLVGGLGRFQVLQTMALMVSIMWLCTQSMLENFSAAVPSHRCWAPLLDNSTAQASILGSLSPEALLAISIPPGPNQRPHQCRRFRQPQWQLLDPNATATSWSEADTEPCVDGWVYDRSIFTSTIVAKWNLVCDSHALKPMAQSIYLAGILVGAAACGPASDRFGRRLVLTWSYLQMAVMGTAAAFAPAFPVYCLFRFLLAFAVAGVMMNTGTLLMEWTAARARPLVMTLNSLGFSFGHGLTAAVAYGVRDWTLLQLVVSVPFFLCFLYSWWLAESARWLLTTGRLDWGLQELWRVAAINGKGAVQDTLTPEVLLSAMREELSMGQPPASLGTLLRMPGLRFRTCISTLCWFAFGFTFFGLALDLQALGSNIFLLQMFIGVVDIPADMGALLLLSHLGRRPTLAASLLLAGLCILANTLVPHEMGALRSALAVLGLGGVGAAFTCITIYSSELFPTVLRMTAVGLGQMAARGGAILGPLVRLLGVHGPWLPLLVYGTVPVLSGLAALLLPETQSLPLPDTIQDVQNQAVKKATHGTLGNSVLKSTQF
With B5 the Km ([1]; other: K393D) was 165.36 ± 23.41 µM and the Vmax ([1]; other: K393D) was 0.000497 µmol/min/mg.

B6: hURAT1 K393E mutant (Homo sapiens; K393E) (protein)
chain: MAFSELLDLVGGLGRFQVLQTMALMVSIMWLCTQSMLENFSAAVPSHRCWAPLLDNSTAQASILGSLSPEALLAISIPPGPNQRPHQCRRFRQPQWQLLDPNATATSWSEADTEPCVDGWVYDRSIFTSTIVAKWNLVCDSHALKPMAQSIYLAGILVGAAACGPASDRFGRRLVLTWSYLQMAVMGTAAAFAPAFPVYCLFRFLLAFAVAGVMMNTGTLLMEWTAARARPLVMTLNSLGFSFGHGLTAAVAYGVRDWTLLQLVVSVPFFLCFLYSWWLAESARWLLTTGRLDWGLQELWRVAAINGKGAVQDTLTPEVLLSAMREELSMGQPPASLGTLLRMPGLRFRTCISTLCWFAFGFTFFGLALDLQALGSNIFLLQMFIGVVDIPAEMGALLLLSHLGRRPTLAASLLLAGLCILANTLVPHEMGALRSALAVLGLGGVGAAFTCITIYSSELFPTVLRMTAVGLGQMAARGGAILGPLVRLLGVHGPWLPLLVYGTVPVLSGLAALLLPETQSLPLPDTIQDVQNQAVKKATHGTLGNSVLKSTQF
Work on B6 yielded a Km ([1]; other: K393E) of 201.23 ± 23.65 µM and a Vmax ([1]; other: K393E) of 0.000424 µmol/min/mg.
